Source: patent publication US20090192084A1

Assays:
[1] = molecular target: PLAP (human) (UniProt Q9Y263); assay: Flag co-IP, 293 cells, MudPIT MS
[2] = molecular target: E6AP ubiquitin-protein ligase, UBE3A (human) (UniProt Q05086); assay: Flag co-IP, MudPIT MS, MG132
[3] = molecular target: UBR2 (human) (UniProt Q8IWV8); assay: Flag co-IP, MudPIT MS, MG132
[4] = molecular target: gp78 (human) (UniProt Q9UKV5); assay: Flag co-IP, MudPIT MS, MG132
[5] = molecular target: DNA damage-binding protein I. DDB1 (human) (UniProt Q16531); assay: Flag co-IP, MudPIT MS, MG132
[6] = molecular target: Retinoblastoma-associated factor 600, UBR4 (human) (UniProt Q5T4S7); assay: Flag co-IP, MudPIT MS, MG132
[7] = molecular target: EDD1/UBR5 (human) (UniProt O95071); assay: Flag co-IP, MudPIT MS, MG132
EDD1/UBR5 (human), sequence (O95071 2-2799 limits assumed): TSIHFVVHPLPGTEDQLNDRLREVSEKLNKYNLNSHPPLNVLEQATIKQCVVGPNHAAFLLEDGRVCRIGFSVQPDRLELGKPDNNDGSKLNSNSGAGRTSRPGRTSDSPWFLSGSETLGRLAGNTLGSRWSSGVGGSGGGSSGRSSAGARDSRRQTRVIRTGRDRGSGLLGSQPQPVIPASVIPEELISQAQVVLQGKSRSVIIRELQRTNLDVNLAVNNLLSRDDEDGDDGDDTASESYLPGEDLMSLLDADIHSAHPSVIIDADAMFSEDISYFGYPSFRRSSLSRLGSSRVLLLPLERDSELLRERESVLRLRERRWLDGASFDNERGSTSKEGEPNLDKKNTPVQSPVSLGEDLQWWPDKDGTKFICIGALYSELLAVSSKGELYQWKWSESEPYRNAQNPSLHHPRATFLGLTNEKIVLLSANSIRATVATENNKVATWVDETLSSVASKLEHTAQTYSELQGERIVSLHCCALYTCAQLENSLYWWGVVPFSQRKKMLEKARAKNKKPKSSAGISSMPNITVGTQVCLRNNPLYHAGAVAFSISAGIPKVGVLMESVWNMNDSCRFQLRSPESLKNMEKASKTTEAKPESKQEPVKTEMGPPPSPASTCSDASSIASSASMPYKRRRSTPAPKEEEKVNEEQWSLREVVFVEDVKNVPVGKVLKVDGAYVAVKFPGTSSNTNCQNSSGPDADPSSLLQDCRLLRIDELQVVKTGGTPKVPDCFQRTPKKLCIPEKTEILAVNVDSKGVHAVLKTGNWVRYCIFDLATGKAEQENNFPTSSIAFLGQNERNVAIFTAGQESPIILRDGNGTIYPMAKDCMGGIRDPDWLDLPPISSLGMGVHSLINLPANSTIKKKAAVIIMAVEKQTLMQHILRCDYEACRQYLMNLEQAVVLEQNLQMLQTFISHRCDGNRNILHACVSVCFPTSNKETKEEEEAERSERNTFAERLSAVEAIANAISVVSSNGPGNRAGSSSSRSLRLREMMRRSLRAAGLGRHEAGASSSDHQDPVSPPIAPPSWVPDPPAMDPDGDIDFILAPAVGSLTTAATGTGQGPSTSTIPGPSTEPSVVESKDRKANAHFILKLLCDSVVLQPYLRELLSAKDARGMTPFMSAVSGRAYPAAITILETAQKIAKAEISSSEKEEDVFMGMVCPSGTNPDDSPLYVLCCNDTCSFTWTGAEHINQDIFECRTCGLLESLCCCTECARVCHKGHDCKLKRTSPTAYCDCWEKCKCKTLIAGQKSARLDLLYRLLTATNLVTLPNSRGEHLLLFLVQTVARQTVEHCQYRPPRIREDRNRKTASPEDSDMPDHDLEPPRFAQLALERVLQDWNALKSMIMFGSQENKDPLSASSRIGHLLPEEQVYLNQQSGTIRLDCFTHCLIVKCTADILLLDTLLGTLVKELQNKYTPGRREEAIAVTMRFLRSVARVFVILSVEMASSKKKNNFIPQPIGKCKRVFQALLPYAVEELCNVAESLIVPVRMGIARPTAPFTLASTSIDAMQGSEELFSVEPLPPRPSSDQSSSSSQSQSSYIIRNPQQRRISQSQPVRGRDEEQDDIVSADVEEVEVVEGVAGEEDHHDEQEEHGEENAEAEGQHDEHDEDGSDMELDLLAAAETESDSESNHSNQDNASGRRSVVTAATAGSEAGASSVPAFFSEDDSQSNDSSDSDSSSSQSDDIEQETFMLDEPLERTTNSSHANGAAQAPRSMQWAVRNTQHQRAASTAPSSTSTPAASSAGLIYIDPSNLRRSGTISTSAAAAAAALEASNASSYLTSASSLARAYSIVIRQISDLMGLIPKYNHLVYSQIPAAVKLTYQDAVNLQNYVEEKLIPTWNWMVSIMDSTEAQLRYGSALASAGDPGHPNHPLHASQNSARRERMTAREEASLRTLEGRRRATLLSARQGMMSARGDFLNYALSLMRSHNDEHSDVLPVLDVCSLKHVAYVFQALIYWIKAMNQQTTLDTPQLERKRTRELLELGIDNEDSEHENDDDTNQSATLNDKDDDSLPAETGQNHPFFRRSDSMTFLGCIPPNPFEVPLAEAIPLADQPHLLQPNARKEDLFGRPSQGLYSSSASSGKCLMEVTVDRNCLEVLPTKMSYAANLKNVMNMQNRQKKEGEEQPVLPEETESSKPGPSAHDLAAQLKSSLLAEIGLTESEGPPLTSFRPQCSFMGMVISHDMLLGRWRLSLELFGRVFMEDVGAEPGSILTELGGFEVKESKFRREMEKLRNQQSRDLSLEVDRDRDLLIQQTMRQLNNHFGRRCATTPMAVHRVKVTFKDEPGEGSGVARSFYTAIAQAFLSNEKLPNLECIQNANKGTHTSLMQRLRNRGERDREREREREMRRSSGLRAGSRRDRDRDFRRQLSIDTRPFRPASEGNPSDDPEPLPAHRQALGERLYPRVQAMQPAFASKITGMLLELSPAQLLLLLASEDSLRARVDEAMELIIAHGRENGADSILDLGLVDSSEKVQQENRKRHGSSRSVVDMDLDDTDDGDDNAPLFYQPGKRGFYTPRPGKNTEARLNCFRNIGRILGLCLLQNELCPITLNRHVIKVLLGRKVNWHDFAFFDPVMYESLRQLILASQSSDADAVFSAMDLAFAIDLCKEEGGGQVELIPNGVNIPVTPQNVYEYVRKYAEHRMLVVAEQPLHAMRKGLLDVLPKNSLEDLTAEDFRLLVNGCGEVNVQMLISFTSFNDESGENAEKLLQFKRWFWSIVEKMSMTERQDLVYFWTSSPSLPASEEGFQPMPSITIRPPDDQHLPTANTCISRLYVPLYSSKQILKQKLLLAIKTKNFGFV

[8] = molecular target: E3 ubiquitin-protein ligase1-HUWE1 (human) (UniProt Q7Z6Z7); assay: Flag co-IP, MudPIT MS, MG132
[9] = molecular target: Kelch-like protein 22. KLEIL22 (human) (UniProt Q53GT1); assay: Flag co-IP, MudPIT MS, DMSO
[10] = molecular target: UBR2 (human) (UniProt Q8IWV8); assay: Flag co-IP, MudPIT MS, DMSO
[11] = molecular target: UBR1 (human) (UniProt Q8IWV7); assay: Flag co-IP, MudPIT MS, DMSO
[12] = molecular target: gp78 (human) (UniProt Q9UKV5); assay: Flag co-IP, MudPIT MS, DMSO
[13] = molecular target: DNA damage-binding protein I. DDB1 (human) (UniProt Q16531); assay: Flag co-IP, MudPIT MS, DMSO
[14] = molecular target: Retinoblastoma-associated factor 600, UBR4 (human) (UniProt Q5T4S7); assay: Flag co-IP, MudPIT MS, DMSO
[15] = molecular target: Praja 2 (human) (UniProt O43164); assay: Flag co-IP, MudPIT MS, DMSO
[16] = molecular target: Cullin 3 (human) (UniProt Q13618); assay: Flag co-IP, MudPIT MS, DMSO
Cullin 3 (human), sequence (Q13618 2-768 limits assumed): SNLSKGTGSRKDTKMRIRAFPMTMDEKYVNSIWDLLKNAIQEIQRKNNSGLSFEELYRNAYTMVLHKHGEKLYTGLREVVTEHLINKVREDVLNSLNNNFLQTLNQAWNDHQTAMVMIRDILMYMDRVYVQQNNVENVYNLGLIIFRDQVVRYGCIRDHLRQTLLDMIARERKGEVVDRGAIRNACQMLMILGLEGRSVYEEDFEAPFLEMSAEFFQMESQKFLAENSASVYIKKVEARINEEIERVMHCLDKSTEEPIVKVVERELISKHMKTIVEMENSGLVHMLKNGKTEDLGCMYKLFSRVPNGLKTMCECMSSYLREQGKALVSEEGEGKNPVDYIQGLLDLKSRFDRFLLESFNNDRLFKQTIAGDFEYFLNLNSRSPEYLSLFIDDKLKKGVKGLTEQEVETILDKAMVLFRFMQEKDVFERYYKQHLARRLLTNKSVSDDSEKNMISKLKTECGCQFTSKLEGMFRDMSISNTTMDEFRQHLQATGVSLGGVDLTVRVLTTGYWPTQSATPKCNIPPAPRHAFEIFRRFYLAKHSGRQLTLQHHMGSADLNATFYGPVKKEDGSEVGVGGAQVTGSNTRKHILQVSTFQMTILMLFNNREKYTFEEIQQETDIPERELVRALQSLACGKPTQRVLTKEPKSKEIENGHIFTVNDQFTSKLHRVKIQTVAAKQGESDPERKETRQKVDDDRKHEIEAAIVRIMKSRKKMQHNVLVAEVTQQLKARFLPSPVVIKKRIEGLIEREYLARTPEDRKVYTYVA

[17] = molecular target: CUL3-interacting protein I. KLHL12 (human) (UniProt Q53G59); assay: Flag co-IP, MudPIT MS, DMSO
[18] = molecular target: EDD1/UBR5 (human) (UniProt O95071); assay: Flag co-IP, MudPIT MS, DMSO
[19] = molecular target: Baculoviral IAP repeat-containing protein 2, IAP2 (human) (UniProt Q13490); assay: Flag co-IP, MudPIT MS, DMSO
Baculoviral IAP repeat-containing protein 2, IAP2 (human), sequence (Q13490 whole entry): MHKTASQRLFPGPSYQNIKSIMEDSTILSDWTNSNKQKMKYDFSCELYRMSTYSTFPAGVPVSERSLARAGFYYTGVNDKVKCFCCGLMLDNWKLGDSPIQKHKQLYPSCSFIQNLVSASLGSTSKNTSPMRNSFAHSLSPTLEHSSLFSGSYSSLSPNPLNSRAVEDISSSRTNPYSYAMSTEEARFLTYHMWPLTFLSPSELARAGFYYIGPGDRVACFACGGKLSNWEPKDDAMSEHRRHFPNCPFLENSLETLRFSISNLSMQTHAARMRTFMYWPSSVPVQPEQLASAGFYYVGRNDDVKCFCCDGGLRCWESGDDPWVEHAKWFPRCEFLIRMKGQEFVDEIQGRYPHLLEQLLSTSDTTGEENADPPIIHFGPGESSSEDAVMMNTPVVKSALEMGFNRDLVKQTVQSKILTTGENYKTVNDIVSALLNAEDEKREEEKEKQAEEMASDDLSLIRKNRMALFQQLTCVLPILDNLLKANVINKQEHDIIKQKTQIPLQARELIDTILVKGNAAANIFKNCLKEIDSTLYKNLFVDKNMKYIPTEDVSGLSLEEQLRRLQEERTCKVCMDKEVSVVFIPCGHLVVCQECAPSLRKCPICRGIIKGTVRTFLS

[20] = molecular target: Elongin C (human) (UniProt Q15369); assay: Flag co-IP, MudPIT MS, MG132
Elongin C (human), sequence (Q15369 whole entry): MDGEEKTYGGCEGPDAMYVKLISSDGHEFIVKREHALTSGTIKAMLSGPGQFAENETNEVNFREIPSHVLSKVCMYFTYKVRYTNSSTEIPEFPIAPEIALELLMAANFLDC

[21] = molecular target: CUL4- and DDB I-associated WDR protein 2, WDR26 (human) (UniProt Q9H7D7); assay: Flag co-IP, MudPIT MS, DMSO

gp78 (human), sequence (Q9UKV5 whole entry): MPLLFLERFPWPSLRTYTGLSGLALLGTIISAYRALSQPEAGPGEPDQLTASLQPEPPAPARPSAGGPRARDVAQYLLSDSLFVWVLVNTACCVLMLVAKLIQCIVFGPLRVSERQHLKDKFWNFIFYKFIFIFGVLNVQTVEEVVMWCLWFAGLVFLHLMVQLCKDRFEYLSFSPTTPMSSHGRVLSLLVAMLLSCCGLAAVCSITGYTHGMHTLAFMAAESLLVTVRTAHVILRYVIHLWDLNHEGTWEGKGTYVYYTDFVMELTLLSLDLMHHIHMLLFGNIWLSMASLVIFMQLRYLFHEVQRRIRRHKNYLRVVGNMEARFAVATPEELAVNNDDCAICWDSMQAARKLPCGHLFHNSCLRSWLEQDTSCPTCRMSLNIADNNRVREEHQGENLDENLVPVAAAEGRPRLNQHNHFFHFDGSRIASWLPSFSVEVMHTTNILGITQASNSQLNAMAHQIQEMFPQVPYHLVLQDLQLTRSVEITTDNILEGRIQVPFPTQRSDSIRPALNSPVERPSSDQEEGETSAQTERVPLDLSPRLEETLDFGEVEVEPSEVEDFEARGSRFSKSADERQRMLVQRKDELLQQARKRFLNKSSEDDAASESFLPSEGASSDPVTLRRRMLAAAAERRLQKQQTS

Substance Flag-SAKS1 (from UniProt Q04323 1-297) has a sequence count [1] of 26, a sequence coverage [1] of 32.1% and a spectrum count [1] of 90. For the same substance, the abundance factor (AF) [2] was 2.2, the sequence count [2] was 4 and the spectrum count [2] was 5. The abundance factor (AF) [3] was 1.3, the sequence count [3] was 3 and the spectrum count [3] was 6. The abundance factor (AF) [4] was 3.6, the sequence count [4] was 3 and the spectrum count [4] was 6. It also gave an abundance factor (AF) [5] of 0.7, a sequence count [5] of 2 and a spectrum count [5] of 2. It also gave an abundance factor (AF) [6] of 5.7, a sequence count [6] of 30 and a spectrum count [6] of 74. The abundance factor (AF) [7] was 2, the sequence count [7] was 9 and the spectrum count [7] was 14. The abundance factor (AF) [8] was 0.6, the sequence count [8] was 4 and the spectrum count [8] was 7. The abundance factor (AF) [9] was 2.3, the sequence count [9] was 2 and the spectrum count [9] was 2. For the same substance, the abundance factor (AF) [10] was 2.8, the sequence count [10] was 5 and the spectrum count [10] was 7. The abundance factor (AF) [11] was 0.8, the sequence count [11] was 2 and the spectrum count [11] was 2. The abundance factor (AF) [12] was 3.3, the sequence count [12] was 3 and the spectrum count [12] was 3. It also gave an abundance factor (AF) [13] of 1.3, a sequence count [13] of 2 and a spectrum count [13] of 2. For the same substance, the abundance factor (AF) [14] was 3.8, the sequence count [14] was 18 and the spectrum count [14] was 27. For the same substance, the abundance factor (AF) [15] was 3.1, the sequence count [15] was 3 and the spectrum count [15] was 3. For the same substance, the abundance factor (AF) [16] was 2.7, the sequence count [16] was 3 and the spectrum count [16] was 3. The abundance factor (AF) [17] was 6.4, the sequence count [17] was 2 and the spectrum count [17] was 5. It also gave an abundance factor (AF) [18] of 2.6, a sequence count [18] of 9 and a spectrum count [18] of 10. The abundance factor (AF) [19] was 2.3, the sequence count [19] was 2 and the spectrum count [19] was 2.
With Flag-UBXD7 (from UniProt O94888 1-489) the sequence count [1] was 2, the sequence coverage [1] was 4% and the spectrum count [1] was 2. The abundance factor (AF) [20] was 20, the sequence count [20] was 8 and the spectrum count [20] was 10. It also gave an abundance factor (AF) [5] of 2.6, a sequence count [5] of 13 and a spectrum count [5] of 13. The abundance factor (AF) [6] was 2.1, the sequence count [6] was 41 and the spectrum count [6] was 49. The abundance factor (AF) [7] was 0.2, the sequence count [7] was 2 and the spectrum count [7] was 2. The abundance factor (AF) [9] was 6, the sequence count [9] was 3 and the spectrum count [9] was 3. The abundance factor (AF) [10] was 2.1, the sequence count [10] was 2 and the spectrum count [10] was 3. For the same substance, the abundance factor (AF) [11] was 1.4, the sequence count [11] was 2 and the spectrum count [11] was 2. For the same substance, the abundance factor (AF) [12] was 5.9, the sequence count [12] was 3 and the spectrum count [12] was 3. The abundance factor (AF) [13] was 12.4, the sequence count [13] was 11 and the spectrum count [13] was 11. It also gave an abundance factor (AF) [14] of 4.5, a sequence count [14] of 12 and a spectrum count [14] of 18. For the same substance, the abundance factor (AF) [15] was 5.5, the sequence count [15] was 2 and the spectrum count [15] was 3. The abundance factor (AF) [16] was 37, the sequence count [16] was 13 and the spectrum count [16] was 23. It also gave an abundance factor (AF) [17] of 18.1, a sequence count [17] of 6 and a spectrum count [17] of 8. The abundance factor (AF) [21] was 46.4, the sequence count [21] was 12 and the spectrum count [21] was 19. It also gave an abundance factor (AF) [19] of 6.1, a sequence count [19] of 3 and a spectrum count [19] of 3.
Flag-UBXD8 (from UniProt Q96CS3 1-445) gave a sequence count [1] of 10, a sequence coverage [1] of 20.1% and a spectrum count [1] of 15. The abundance factor (AF) [2] was 0.5, the sequence count [2] was 2 and the spectrum count [2] was 2. For the same substance, the abundance factor (AF) [20] was 5.7, the sequence count [20] was 2 and the spectrum count [20] was 3. It also gave an abundance factor (AF) [3] of 0.2, a sequence count [3] of 2 and a spectrum count [3] of 2. The abundance factor (AF) [4] was 1.9, the sequence count [4] was 4 and the spectrum count [4] was 6. It also gave an abundance factor (AF) [5] of 0.7, a sequence count [5] of 3 and a spectrum count [5] of 4. For the same substance, the abundance factor (AF) [6] was 0.3, the sequence count [6] was 6 and the spectrum count [6] was 6. It also gave an abundance factor (AF) [7] of 0.8, a sequence count [7] of 9 and a spectrum count [7] of 10. It also gave an abundance factor (AF) [8] of 0.3, a sequence count [8] of 6 and a spectrum count [8] of 6. The abundance factor (AF) [10] was 0.4, the sequence count [10] was 3 and the spectrum count [10] was 5. It also gave an abundance factor (AF) [11] of 0.3, a sequence count [11] of 3 and a spectrum count [11] of 3. It also gave an abundance factor (AF) [12] of 0.5, a sequence count [12] of 2 and a spectrum count [12] of 2. For the same substance, the abundance factor (AF) [13] was 0.3, the sequence count [13] was 2 and the spectrum count [13] was 2. It also gave an abundance factor (AF) [14] of 0.2, a sequence count [14] of 3 and a spectrum count [14] of 5. For the same substance, the abundance factor (AF) [15] was 0.7, the sequence count [15] was 3 and the spectrum count [15] was 3. For the same substance, the abundance factor (AF) [18] was 0.2, the sequence count [18] was 3 and the spectrum count [18] was 3. The abundance factor (AF) [21] was 1.2, the sequence count [21] was 2 and the spectrum count [21] was 4.
